Source: paper PMC7327177
Where “and” joins values, the source holds several entries; their conditions need not be identical. Equal values may be shown once.

Legend:
[1] = molecular target: Heme A synthase from Aquifex aeolicus (Aquifex aeolicus strain VF5) (UniProt O66543); test: native MS; LILBID-MS, AaHAS 2 mg/ml, in the presence of 150 mM NaCl, harsh laser mode, negative-ion mode
[2] = molecular target: Heme A synthase from Aquifex aeolicus (Aquifex aeolicus strain VF5) (UniProt O66543); test: SEC-MALS; 150 μl AaHAS at ~2 mg/ml, Superdex 200 10/300 GL, 20 mM Tris-HCl pH 7.4, 150 mM NaCl, 0.15% DM, 4°C
[3] = molecular target: Heme A synthase from Aquifex aeolicus (Aquifex aeolicus strain VF5) (UniProt O66543); test: native MS; LILBID-MS, additionally desalted AaHAS (without NaCl; 20 mM Tris-HCl pH 7.4, 0.15% DM), harsh laser mode, negative-ion mode
[4] = molecular target: Heme A synthase from Aquifex aeolicus (Aquifex aeolicus strain VF5) (UniProt O66543); test: native gel or EMSA; BN-PAGE, Novex 4 to 16% bis-Tris gel, purified AaHAS in DM; band at about 200 kDa, conversion factor 1.8 gives 110 kDa
[5] = molecular target: Heme A synthase from Aquifex aeolicus (Aquifex aeolicus strain VF5) (UniProt O66543); test: cross-linking; 0.5/3.5 mM BS3 or 0.5 mM DSS, room temperature, 30 min, quenched with 50 mM Tris-HCl pH 7.5, then 90°C for 10 min and SDS-PAGE
[6] = molecular target: Heme A synthase from Aquifex aeolicus (Aquifex aeolicus strain VF5) (UniProt O66543); test: cryo-EM structure; single-particle cryo-EM of purified AaHAS (2.5 mg/ml) in DM; map at 4.2 Å with C3 symmetry, 4.6 Å without applied symmetry
[7] = molecular target: Heme A synthase from Aquifex aeolicus (Aquifex aeolicus strain VF5) (UniProt O66543); test: SDS-PAGE + MALDI-TOF MS; purified AaHAS on 4 to 12% bis-Tris NuPAGE; incubated with 10 mM DTT at room temperature or 70°C for 10 min; masses of the two bands by MALDI-TOF MS (data not shown)

- stoichiometry N [1]: 3
- stoichiometry N [2]: 3
- stoichiometry N [3]: 2 and 3
- stoichiometry N [4]: 3
- stoichiometry N [5]: 2 and 3
- stoichiometry N [6]: 3
- stoichiometry N [7]: 3
Substance: Heme A synthase from Aquifex aeolicus (from UniProt O66543 2-296) (enzyme)
